Target: the molecule itself
Assay: cryo-EM structure

B1: phosphoglucomutase GlmM of Lactococcus lactis (enzyme, UniProt A2RIG0 1-452, looked up)
chain: MGKYFGTDGVRGEANVELTPEMAFKLGRFGGYVLSQHELETPKVYVGRDTRISGQMLASSLISGLLSVGIEVYDLGVIATPGVAYLVKKDGASAGVMISASHNPALDNGIKFFGGDGYKLEDEKELEIEALIDAKEDTLPRPSAQGLGMLHDYIEGVRKYQAFLKTTAEGDFEGYNVVLDTANGASYTSARAVFADLKANLTVIGENPDGLNINVKVGSTHPEAMAKKVVETGSDLGLAFDGDADRLIAVDENGEIVDGDKIMFIVGKYLLEQGKLAQDTLVTTVMSNLGFHLALEEAGINSVITAVGDRYVVEEMKKNNYNFGGEQSGHMIFLDYNTTGDGQLSAIQLLKVMRETGKTLSELASEVTIYPQKLVNVRVKDNAAKKSAMDVPAIQKVISEMETSMNGKGRILVRPSGTEPLLRVMAEAPTHEQVDHVVDTIVEVVEEEIGVK
Question: With B1 as the protein, how does the “stoichiometry N” value read?
Answer: 2
